Assay results reported in US20230121197A1, “ANTIBODIES SPECIFICALLY BINDING THE CARBOXYMETHYLATED CATALYTIC SUBUNIT OF PROTEIN PHOSPHATASE 2A” (Medizinische Universität Wien, priority 2020, published 2023).

Columns and labels:
[1] = biological target: T1, C(βA)TPDYFL-CH3 peptide (carboxymethylated PP2Ac C-terminus) (Homo sapiens, UniProt P67775); assay: ELISA screening of hybridoma supernatants with C(βA)TPDYFL peptides; format: binding; details: undiluted supernatants, peptides at 3 μg/ml
T1 construct: purchased PiChem GmbH (Graz, Austria)
Method: In parallel to the immunoblotting screening, hybridoma supernatants were tested for the presence of TPDYFL-CH3 (SEQ ID NO:1) specific IgG antibodies by ELISA. Specifically, flat-bottom Nunc-Immuno Medisorp 96-well ELISA plates (Thermo; 467320) were coated over night at 4° C. with 50 μl of either a peptide of the sequence C(βA)TPDYFL (SEQ ID NO:48) at a concentration of 3 μg/ml in 10 mM sodium phosphate buffer pH 7.0 or with a peptide of the sequence C(βA)TPDYFL-CH3 (SEQ ID NO:48) at a concentration of 3 μg/ml in 10 mM sodium phosphate buffer pH 7.0. The wells were washed once with PBS, blocked with 180 μl of 2% bovine serum albumin (Sigma, A9647) in PBS for 1 hour at RT and washed again once with PBS. […] Bound antibodies were detected colorimetrically by addition of 50 μl of 33 μg/ml […] (TMB) (Sigma, T2885) in 0.1 M sodium acetate pH 6.0 and 0.01% H2O2 (Sigma, H1009). The colorimetric reaction was stopped after 28 min by addition of 50 μl 0.5 M H2SO4, and absorbance was measured at 450 nm with a Perkin Elmer Wallac Victor 2 1420 Multilabel Counter.

[2] = biological target: T2, PP2Ac C-terminal peptide meL309, ac-HVTRRTPDYFL-CH3 (α-carboxymethylated) (human, SMILES …); assay: SPR, from KD 11 nM against >5000 nM
T2 construct: also called Y307-meL309; mePP2Ac
T2 peptide: Ac-HVTRRTPDYFL-OMe
Excerpt: (A) Saturation curve of the titration of the α-carboxymethylated PP2Ac C-terminal peptide (SEQ ID NO:18) on 7C10-C5 or 2A10 immobilized on a Series S Sensor Chip CM5 (GE Healthcare, 10296958). […] (B) Saturation curve of the titration of the α-carboxymethylated PP4c C-terminal peptide (SEQ ID NO:20) on 7C10-C5 or 2A10 immobilized on a Series S Sensor Chip CM5 (GE Healthcare, 10296958). […] The KD values were obtained using the fitting tool of the BiacoreT200 Evaluation Software (version 3.1).
The differential affinity of anti-carboxymethylated PP2Ac antibodies, 7C10-C5 and 2A10, to carboxymethylated PP2A catalytic subunit versus noncarboxymethylated PP2A catalytic subunit was determined by surface plasmon resonance (SPR) on a Biacore T200 (GE Healthcare) at the Core Facility Biomolecular & Cellular Analysis (University of Natural Resources and Life Sciences Vienna BOKU). The affinity of 7C10-C5 for carboxymethylated and noncarboxymethylated catalytic subunit of PP4 (PP4c), a PP2A-related phosphatase, was also determined.

[3] = biological target: T3, PP4c C-terminal peptide meL307, ac-PSKKPVADYFL-CH3 (α-carboxymethylated) (human, SMILES …); assay: ELISA, peptide coated at 2 µg/ml, hybridoma supernatant 1:50, values normalized to meL309, N=7
T3 construct: also called mePP4c; PP4 Me
T3 peptide: Ac-PSKKPVADYFL-OMe
Excerpt: (§1) FIG. 9: Monoclonal antibody 7C10-C5 detects α-carboxymethylated PP2Ac C-terminal peptides with >10-fold higher signal intensity than the α-carboxymethylated PP4c and PP6c C-terminal peptides in ELISA. Nunc Medisorp 96-well ELISA flat-bottom plates were coated with PP2Ac peptides L309 (ac-[…]) (SEQ ID NO:18), meL309 (ac-[…]-CH3) (SEQ ID NO:18), PP4c peptides L307 (ac-[…]) (SEQ ID NO:20), meL307 (ac-[…]-CH₃) (SEQ ID NO:20), PP6c peptides L305 (ac-[…]) (SEQ ID NO:22) or meL305 (ac-[…]-CH₃) (SEQ ID NO:22) at 2 μg/ml in TBS or TBS only (Neg) at 4° C. over-night. After washing once with TBS, the wells were incubated with 2% BSA in TBS for 1 h at RT. After washing once with TBS, the wells were incubated with single clone hybridoma cell culture supernatant, clone 7C10-C5 1:50 for 1 h at RT. After washing twice with TBS, wells were incubated with anti-mouse and anti rabbit HRP-coupled secondary antibody for 1 h at RT, followed by washing 3× in PBS. Bound antibodies were detected by colorimetric reaction with 3,3′,5,5′-Tetramethylbenzidine as substrate, and absorbance was measured at 450 nm. Values were normalized to meL309 which was set to 1. Average and standard deviation of N=7 experiments are shown. […] Statistical significance was assessed using ANOVA followed by Tukey's HSD as a post-hoc test. […]

[4] = biological target: T4, PP6c C-terminal peptide meL305, ac-IPPRTTTPYFL-CH3 (α-carboxymethylated) (human, SMILES …); assay: as above
T4 construct: also called PP6 meLeu305
T4 peptide: Ac-IPPRTTTPYFL-OMe
Excerpt: as §1

B1: 7C10-C5 monoclonal antibody (antibody, V domains shown)
VH: DVQLQESGPGLVKPSQSLSLTCSVTGYSITSGYYWNWIRQFPGNKLEWMGYISYDGSNNYNPSLKNRISITRDTSKNQFFLKLNSVTTEDTATYYCAGRFAYWGQGTLVTVSA
VL: DVLMTQTPLSLPVSLGDQASISCRSSQSIVHSNGNTYLEWYLQKPGQSPKLLIYKVSNRFSGVPDRFSGSGSGTDFTLKINRVEAEDLGVYYCFQGSHVPWTFGGGTKLEIK
notes: Used as hybridoma culture supernatant (ELISA, Western blot, IHC) or at 50 µg/mL (SPR); also called 7C10 X63; clone 7C10-C5
- detection of carboxymethylated versus non-carboxymethylated peptide [1]: detected the carboxymethylated peptide
- fold stronger binding than to non-carboxymethylated PP2Ac [2]: ≥ 400 fold
- fold-change of ELISA signal, meL309 (PP2A) over meL307 (PP4) [3]: 10.1 fold
- fold-change of ELISA signal, meL309 (PP2A) over meL305 (PP6) [4]: 16.2 fold
